Assay results reported in US20240189443A1, “PD-L1 AND TLR7 DOUBLE-TARGETING NANOBODY COUPLING DRUG AND USE THEREOF IN ANTI-TUMOR” (SHANGHAI INSTITUTE OF MATERIA MEDICA, CHINESE ACADEMY OF …, priority 2021, published 2024).
Where a chain is given by its changes, count along the chain named. Several values for one entry are separate records, joined by “and”; a condition that tells them apart may be missing. Equal values may be shown once.

What was measured:
HEK293T/hPD-L1 = target: T1, HEK293T/hPD-L1 (Homo sapiens, UniProt Q9NZQ7); assay: Human PD-L1 binding activity assay of candidate anti-human PD-L1 nanobodies (flow cytometry); conditions: nanobody 10 μg/mL
T1 construct: expressed in transfected cells; host or cells: HEK293T
T1 sequence (Q9NZQ7 19-290): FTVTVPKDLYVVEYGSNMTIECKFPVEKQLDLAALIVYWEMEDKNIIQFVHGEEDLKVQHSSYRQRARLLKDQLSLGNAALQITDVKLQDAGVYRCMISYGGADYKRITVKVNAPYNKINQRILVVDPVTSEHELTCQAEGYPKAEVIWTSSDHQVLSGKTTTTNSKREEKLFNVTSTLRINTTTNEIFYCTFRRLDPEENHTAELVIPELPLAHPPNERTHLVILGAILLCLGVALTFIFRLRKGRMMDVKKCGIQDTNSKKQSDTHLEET
Protocol: The cell strain HEK293T/hPD-L1 was digested, and centrifugationwas performed to remove the supernatant; the cells were washed one time with PBS and the cell density was adjusted to 2.5×10^6 cells/mL; each cell sample was added to a 100 μL cell suspension, that is, a 2.5×10^5 cell/sample was comprised; different anti-human PD-L1 candidate nanobodies (the concentration is 10 μg/mL) were respectively added to the samples; incubating for 20 min at 4° C.; centrifuging, removing supernatant, and the cells were washing once with PBS; using diluted antibody anti-human IgG Fc (FITC) as secondary antibody, and the cells were re-suspended; incubating at 4° C. for 20 min; centrifuging, removing supernatant, the cells were washing twice with PBS, and transferred to a flow tube; and was performed on-machine detection by using a flow cytometer to obtain the binding activity of the candidate nanobody and human PD-L1, as shown in FIG. 13.

[1] = target: T2, human PD-1/PD-L1 (HEK293T/hPD-L1) (Homo sapiens, UniProt Q9NZQ7); assay: Human PD-1/PD-L1 blocking activity assay of candidate anti-human PD-L1 nanobodies (flow cytometry); type: binding; conditions: nanobody 10 μg/mL, human PD-1-his 1 μg/mL
T2 construct: expressed in transfected cells; host or cells: HEK293T
T2 sequence (Q9NZQ7 19-290): as above
Protocol: The cell strain HEK293T/hPD-L1 was digested, and centrifugationwas performed to remove the supernatant; the cells were washed one time with PBS and the cell density was adjusted to 2.5×10^6 cells/mL; each cell sample was added to a 100 μL cell suspension, that is, a 2.5×10^5 cell/sample was comprised; and the human PD-1-his protein (the concentration was 1 μg/mL) and the anti-human PD-L1 candidate nanobody (the concentration was 10 μg/mL) were respectively added to the sample; the cells were incubated for 20 min at 4° C.; centrifuging, supernatant was removed, and the cells were washed once with PBS; using diluted antibody anti-his-APC as secondary antibody, and the cells were re-suspended; incubated at 4° C. for 20 min; centrifuging, supernatant was removed, the cells were washedtwice with PBS, and was transferred to a flow tube; and was performed on-machine detection by using a flow cytometer to obtain the PD-1/PD-L1 blocking activity of the candidate nanobody, as shown in FIG. 14.

human PD-L1 = human PD-L1 (Homo sapiens, UniProt Q9NZQ7); assay: CDR affinity maturation of anti-human PD-L1 nanobodies, affinity compared with original antibody; type: binding; conditions: relative to original antibody h_Nb1 VHH or h_Nb2 VHH
human PD-L1, sequence (Q9NZQ7 19-290): as above
Text: Wherein, the original antibody corresponding to the sequence shown in SEQ ID NO.92-106 is h_Nb1 VHH (SEQ ID NO.21); and the original antibody corresponding to the sequence shown in SEQ ID NO.107 -117 is h_Nb2 VHH (SEQ ID NO.25).

mPD-L1-Fc fusion protein [2] = target: T3, mPD-L1-Fc fusion protein (mouse; human, UniProt Q9EP73 19-239); assay: competition ELISA, coated mPD-L1-Fc, 10 µg/mL mouse PD-1-Fc-Biotin, SA-HRP detection
T3 construct: extracellular domain; also called Mouse PD-L1 (ECD)-pFUSE-hIgG1-Fc; not shown: Fc of human IgG1 from vector pFUSE-hIgG1-Fc
T3 sequence (Q9EP73 19-239 limits assumed): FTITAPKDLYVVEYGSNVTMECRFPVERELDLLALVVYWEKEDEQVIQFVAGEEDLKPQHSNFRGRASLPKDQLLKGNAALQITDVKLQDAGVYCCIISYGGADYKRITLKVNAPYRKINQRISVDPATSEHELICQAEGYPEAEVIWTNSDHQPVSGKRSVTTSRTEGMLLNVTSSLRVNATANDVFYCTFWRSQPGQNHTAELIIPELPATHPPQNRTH
Protocol: (§1) Coating the plate with mPD-L1-Fc fusion protein at 4° C. overnight, then the plate was sealed with BSA at 37° C. for 2 hours, Nb16 nanobodies of different concentrations and 10 μg/mL mouse PD-1-Fc-Biotin fusion protein were added in each hole., After reacting at room temperature for 1 hour, the plate was washed and antibody SA-HRP was added, and the plate reacted at room temperature for 1 hour. After washing, a color developing solution was added, and an absorption value was read at a wavelength of 450 nm.

mPD-L1-Fc fusion protein [3] = target: T3, mPD-L1-Fc fusion protein; assay: ELISA, coated mPD-L1-Fc, anti-mouse HRP detection
Protocol: Coating the plate with mPD-L1-Fc fusion protein at 4° C. overnight, then the plate was sealed with BSA at 37° C. for 2 hours, Nb 16 nanobodies of different concentrations were added in each hole, reacted at room temperature for 1 hour, and the plate were washed and goat anti-mouse horseradish peroxidase labeled antibody was added, and reacting at room temperature for 1 hour. After washing, a color developing solution was added, and an absorption value was read at a wavelength of 450 nm.

[4] = target: T4, mouse PD-L1 on cell strain HEK293T/mPD-L1 (mouse, UniProt Q9EP73 19-290); assay: flow cytometry on HEK293T/mPD-L1, anti-mouse IgG Fc (PE)
T4 construct: whole, on cells
T4 sequence (Q9EP73 19-290): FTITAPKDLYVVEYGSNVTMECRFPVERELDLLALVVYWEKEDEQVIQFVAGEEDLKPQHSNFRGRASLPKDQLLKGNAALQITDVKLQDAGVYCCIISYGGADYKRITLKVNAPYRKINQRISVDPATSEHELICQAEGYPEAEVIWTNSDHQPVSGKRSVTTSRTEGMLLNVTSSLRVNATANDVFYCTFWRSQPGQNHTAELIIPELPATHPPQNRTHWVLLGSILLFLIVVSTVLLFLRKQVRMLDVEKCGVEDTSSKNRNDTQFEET

[5] = test system: induced high-expression PD-L1 CT26 tumor cell; assay: Combined anti-tumor effect of Nb16 and SZU-101, IFN-γ-induced CT26 subcutaneous tumor model; type: in vivo, BALB/c mouse; conditions: Nb16 10 mg/kg intraperitoneal, SZU-101 3 mg/kg peritumoral
Protocol: The mouse CT26 tumor cells were recovered and passaged, it was ensured that tumor cells at least have been subjected to 3 generations during tumor-bearing, and mouse IFN-γ with a final concentration of 100 ng/mL was used to induce tumor cells for 24 h before tumor-bearing, so that the cell surface thereof highly expresses PD-L1; the induced high-expression PD-L1 CT26 tumor cell was inoculated subcutaneously into a female BALB/c mouse, wherein the inoculation amount was 1×10^6 cells/one; and randomly grouping mice into four groups (9 per group), i.e., a same-type control group (mFc), a nano-antibody Nb16 group (Nb16), a TLR7 agonist SZU-101 group (SZU-101) and a combined treatment group (NB16/SZU-101), wherein the administration amount of the mFc and the Nb16 was 10 mg/kg, and intraperitoneal administration was performed; and the administration amount of the SZU-101 was 3 mg/kg, and the tumor was administered circumferentially. The administration cycle were Nb16 administered on D1, D5, D9, D12, and D14 and SZU-101 administered on D9-D14 (3A). The body weight of the mouse and the tumor major diameter (L) and the short diameter (W) in the administration cycle were observed and recorded until the anatomical endpoint, and the tumor volume V=(L×W×W)/2 was calculated, a tumor growth curve was drawed, and the tumor inhibition rate was calculated; and the experiment was terminated on the fifteenth day. After performing euthanasia, the animal was dissected, and the subcutaneous tumor was taken out.

PD-1/PD-L1 = PD-1/PD-L1 (Mus musculus, UniProt Q9EP73); assay: ELISA PD-1/PD-L1 blocking activity assay of nanobody Nb16; type: binding; set-up: A Mouse PD-L1 (ECD)-pFUSE-hIgG1-Fc vector is constructed; made in house; host or cells: HEK293F (PD-L1-Fc)
PD-1/PD-L1, sequence (Q9EP73 19-239 limits assumed): as the sequence (Q9EP73 19-239 limits assumed) above
Protocol: as §1

[6] = test system: IFN-γ-induced high-expression PD-L1 CT26; assay: IFN-γ-induced high-expression PD-L1 CT26 subcutaneous tumor-bearing model, conjugate vs combined administration; type: in vivo, BALB/c mouse; conditions: Day 14, Nb16 or Nb16-SZU-101 10 mg/kg, SZU-101 0.5 mg/kg, intraperitoneal, 4 doses
Protocol: In an IFN-γ-induced high-expression PD-L1 CT26 subcutaneous tumor-bearing BALB/c mouse model, mice were randomly divided into four groups, namely an mFc group, an Nb16 group, an Nb16/SZU-101 combined administration group and an NB16-SZU-101 nanobody conjugate drug group, wherein the administration dosage of the mFc or Nb 16 or Nb16-SZU-101 was 10 mg/kg, the administration mode was intraperitoneal administration, the administration dosage of the SZU-101 was 0.5 mg/kg, and the administration mode was intraperitoneal administration; the drug was administered on Day 2, Day 6, Day 10 and Day 13 for a total of 4 times. Tumor sizes were measured 2-3 times per week, and tumor growth curves were drawn; and anatomical weighing and photographing were performed on mice at Day 14.

B1: h_Nb2: anti-human PD-L1 nanobody, VHH SEQ ID NO: 25 (protein)
VHH: DVQLQESGGGLVQPGGSLRLSCAASGFTFGDRWMYWLRQAPGKGLEWVSSINPAGRSTYYADSVKGRFTISRDNAKNTLYLQMNSLKSEDTAVYYCTKDPGGYQKGQGTQVTVSS
modifications: h_Nb2 Amino acid sequence of VHH
- Binding activity with human PD-L1 (HEK293T/hPD-L1): good binding activity
- Blocking of human PD-1/PD-L1 binding [1]: effectively block

B2: h_Nb2_G101Y: affinity-matured h_Nb2 VHH, SEQ ID NO: 112 (protein)
VHH: B1 VHH with G102Y
modifications: h_Nb2_G101Y
- Increased relative affinity (human PD-L1): 8.4837

B3: h_Nb1: anti-human PD-L1 nanobody, VHH SEQ ID NO: 21 (protein)
VHH: DVQLQESGGGLVQPGGSLRLSCAASGFTFSSYAMSWVRQAPGKGLEWVSDINSGGDNTDYADSVKGRFTISRDNAKNTLYLQMNSLKPEDTAVYYCARGPKLCFSSWGQGTQVTVSS
modifications: h_Nb1 Amino acid sequence of VHH
- Binding activity with human PD-L1 (HEK293T/hPD-L1): good binding activity
- Blocking of human PD-1/PD-L1 binding [1]: effectively block

B4: nanobody Nb16 (Fc fusion)
chain: QVQLQESGGGSVQAGGSLRLSCAASGYTDRNYWMGWFRQAPGKEREGVAALYTRTGSTYYADSVKGRFTISHDNAKNTLYLQMNSLKPEDTAVYYCAADSNAYGLAPLHHYWGQGTQVTVSS
notes: also called bare anti-Nb16; original PD-L1 nanobody; not shown: Fc of mouse IgG2b from vector pFUSE-mIgG2b-Fc
- IC50 (mPD-L1-Fc fusion protein [2]): 1.02 µg/mL
- EC50 (mPD-L1-Fc fusion protein [3]): 0.045 µg/mL

B5: PD-L1 and TLR7 double-targeting nanobody coupling drug Nb16-SZU-101 (Fc fusion)
chain: B4 chain
modifications: TLR7 agonist SZU-101 coupled through SZU-101-NHS active ester to amino groups, sites not given; coupling degree 4.5
notes: not shown: Fc of mouse IgG2b from vector pFUSE-mIgG2b-Fc
- binding result [4]: binds

B6: Nb16: anti-PD-L1 nanobody, VHH sequence SEQ ID NO: 1, expressed as Fc fusion (protein)
chain: B4 chain
modifications: left off: a dimerising Fc or GST
- Anti-tumor effect [5]: significantly inhibit tumor growth
- Tumor inhibitory rate ([5]; day 15): 35%
- Endpoint tumor Weight ([5]; individual mice, day 15): 0.806 g and 0.505 g and 0.460 g and 0.450 g and 0.250 g and 0.381 g and 0.664 g and 0.361 g and 0.418 g
- Blocking of PD-1/PD-L1 binding (PD-1/PD-L1): effectively blocked
- Tumor inhibitory rate [6]: 30%
- Endpoint tumor Weight ([6]; individual mice): 0.263 g and 0.591 g and 0.342 g and 0.334 g and 0.494 g and 0.442 g
